Targets include His-G5(1–739) Y474A (UniProt Q8TEQ6); His-G5(1–739) W14A (UniProt Q8TEQ6); His-G5(1–739) Y15A (UniProt Q8TEQ6); His-G5(1–739) wild type (UniProt Q8TEQ6).
What all share (assay): pull-down

Sequence of His-G5(1–739) wild type (Q8TEQ6 1-739): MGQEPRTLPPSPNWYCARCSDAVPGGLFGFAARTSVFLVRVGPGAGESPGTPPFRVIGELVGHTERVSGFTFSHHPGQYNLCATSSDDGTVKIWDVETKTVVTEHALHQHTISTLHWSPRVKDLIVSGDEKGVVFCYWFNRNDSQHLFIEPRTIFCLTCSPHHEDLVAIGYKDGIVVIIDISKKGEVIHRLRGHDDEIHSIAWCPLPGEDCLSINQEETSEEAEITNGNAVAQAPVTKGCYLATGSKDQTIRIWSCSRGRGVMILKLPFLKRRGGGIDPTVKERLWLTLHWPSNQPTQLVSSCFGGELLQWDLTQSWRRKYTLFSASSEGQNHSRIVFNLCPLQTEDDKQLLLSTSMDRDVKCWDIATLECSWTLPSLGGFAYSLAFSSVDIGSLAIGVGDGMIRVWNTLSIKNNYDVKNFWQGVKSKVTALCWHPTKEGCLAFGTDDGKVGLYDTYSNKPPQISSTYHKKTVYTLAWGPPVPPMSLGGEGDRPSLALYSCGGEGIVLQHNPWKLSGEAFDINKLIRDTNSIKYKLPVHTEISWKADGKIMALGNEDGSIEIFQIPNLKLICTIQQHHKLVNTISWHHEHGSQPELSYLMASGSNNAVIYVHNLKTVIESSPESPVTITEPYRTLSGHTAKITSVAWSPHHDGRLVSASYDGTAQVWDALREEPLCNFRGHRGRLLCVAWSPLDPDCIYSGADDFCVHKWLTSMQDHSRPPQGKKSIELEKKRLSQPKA
Sequence of His-G5(1–739) W14A (Q8TEQ6 1-739 W14A): as the sequence (Q8TEQ6 1-739) above, with W14A counted along it
Sequence of His-G5(1–739) Y474A (Q8TEQ6 1-739 Y474A): as the sequence (Q8TEQ6 1-739) above, with Y474A counted along it
Sequence of His-G5(1–739) Y15A (Q8TEQ6 1-739 Y15A): as the sequence (Q8TEQ6 1-739) above, with Y15A counted along it

For “80S ribosomes (from UniProt P05388 1-317) (complex)”, the values for the fold P0 signal over the beads-ribosome background with His-G5(1–739) Y474A, with His-G5(1–739) W14A and in the assay with His-G5(1–739) Y15A were 3 fold, 13.8 fold and 14.4 fold, respectively. In the assay with His-G5(1–739) wild type, this substance returned a fold P0 signal over the control (beads with 80S, no His protein) of 38.8 fold.

(Values after publication PMC5041490.)
